Non-standard residues stand in square brackets, D forms with d. Residues, ends and D or L forms follow the SMILES beside them. *: point of attachment. X1 = CC(=O)N(O)CCCCCNC(=O)CCC(=O)N(O)CCCCCNC(=O)CCC(=O)N(O)CCCCCNC(=O)CCN1C(=O)CC(*)C1=O
Key:
[1] = in vivo; design: species or system BALB/c mice; conditions: BALB/c, mouse, total radioactivity
Protocol: (§1) In vivo animal PET imaging and biodistribution. All injections were less than 200 μL with <10% EtOH in sterile PBS. PET images were obtained with the mice under anesthesia in an Inveon PET-CT at 4-144 h p.i. All images were analyzed using 3D Slicer (www.slicer.org). Dissections for ex vivo biodistribution were performed on mice after C02 asphyxiation or cervical dislocation while anesthetized at reported time points. Weight of the syringe prior to injection and after injection was used to determine the mass of injectate. Activity of the syringe prior to injection and after injection was used to determine the percent of injectate administered. The mass injected was corrected by the percent of radioactivity injected. Four to five aliquots (10 μL) were weighed and counted as internal standards for each study. All of the collected organs were counted using an automatic gamma counter (Wizard 3″, PerkinElmer, Waltham, MA). The total injected dose was found as the mass injected dose×fraction radioactivity injected×internal standard average counts/g. The percent injected dose (% ID) was determined as the counts for the tissue×100/total injected dose. The % ID/g was calculated as the % ID/tissue weight. The average and standard deviation of the % ID and % ID/g was determined using normal methods (n-1) for each set of mice.
(§2) 4T1 orthotopic BALB c mouse model. Animal studies were conducted according to MSKCC IACUC-approved animal protocol.
(§3) The 4T1 cells derived from spontaneous breast tumor in a BALB/c mouse (Karmanos Cancer Institute, Detroit, MI) were cultured in Dulbecco's modified Eagle's high glucose media with 10% FCS, 2 mM L-glutamine, penicillin, and streptomycin. The 4T1 cells derived from ATCC (Manassas, VA) were cultured in RPMI-1640 medium modified to contain 2 mM L-glutamine, 10 mM HEPES, 1 mM sodium pyruvate, 4.5 g/L glucose, 1.5 g/L NaHCO3, penicillin, and streptomycin.
(§4) The 4T1 cells described above were removed from the flasks containing the culture, concentrated, and resuspended in minimal media for cell counting. […]

[2] = test system: 4T1 tumors; assay: in vivo; design: species or system BALB/c mice; conditions: mouse
Protocol: as §1, §2, §3, §4

[3] = in vivo; conditions: male, athymic nude, mouse, 200 uCi (1.2 nmol), total radioactivity, ex vivo distribution
Protocol: All injections were less than 200 μL with <10% EtOH in sterile PBS. […] All images were analyzed using 3D Slicer (www.slicer.org). Dissections for ex vivo biodistribution were performed on mice after C02 asphyxiation or cervical dislocation while anesthetized at reported time points. Weight of the syringe prior to injection and after injection was used to determine the mass of injectate. Activity of the syringe prior to injection and after injection was used to determine the percent of injectate administered. The mass injected was corrected by the percent of radioactivity injected. Four to five aliquots (10 μL) were weighed and counted as internal standards for each study. All of the collected organs were counted using an automatic gamma counter (Wizard 3″, PerkinElmer, Waltham, MA). […] The percent injected dose (% ID) was determined as the counts for the tissue×100/total injected dose. The % ID/g was calculated as the % ID/tissue weight. The average and standard deviation of the % ID and % ID/g was determined using normal methods (n-1) for each set of mice.
Tissue samples were collected for additional ex vivo biodistribution studies to confirm the PET data results.

Q: Which tissue uptake [1] does the source give for `CC(=O)N(O)CCCCCNC(=O)CCC(=O)N(O)CCCCCNC(=O)CCC(=O)N(O)CCCCCNC(=O)CCN1C(=O)CC(SC[C@@H](NC(=O)[C@@H](C)N)C(=O)N[C@H](CC(=O)O)C(=O)N[C@H](CC(=O)O)C(=O)N[C@H](CCC(N)=O)C(=O)N[C@H](CC(N)=O)C(=O)N2CCC[C@@H]2C(=O)N[C@H](Cc2c[nH]c3ccccc23)C(=O)N[C@H](CCCNC(=N)N)C(=O)N[C@H](C)C(=O)N[C@H](Cc2ccc(O)cc2)C(=O)N[C@H](CC(C)C)C(=O)N[C@H](CC(=O)O)C(=O)N[C@H](CC(C)C)C(=O)N[C@H](CC(C)C)C(=O)N[C@H](Cc2ccccc2)C(=O)N2CCC[C@@H]2C(=O)N[C@@H](C(=O)N[C@H](CC(=O)O)C(=O)N[C@@H](C(=O)N[C@H](CC(C)C)C(=O)N[C@H](CC(C)C)C(=O)N[C@H](CC(C)C)C(=O)N[C@H](CC(=O)O)C(=O)N[C@H](CC(C)C)C(=O)N[C@H](CC(C)C)C(=O)N[C@H](Cc2c[nH]c3ccccc23)C(=O)O)[C@H](C)O)[C@H](C)O)C1=O` (stereo partly drawn) [[^89Zr]Zr-DFO-cys-Var3pHLIP, metal not drawn] (H-[dA][dC](X1)[dD][dD][dQ][dN][dP][dW][dR][dA][dY][dL][dD][dL][dL][dF][dP][dT][dD][dT][dL][dL][dL][dD][dL][dL][dW]-OH; N-terminus and C-terminus assumed) here?
A: ~15 %ID/g

Q: And the “time until which tumor uptake continues to increase” value [2]?
A: approximately 48 h

Q: What about the circulatory half-life ([2]; 5 ug) of the same compound?
A: long circulatory half-life

Q: What about the tissue uptake at 48 h ([3]; Femur) of the same compound?
A: 1.4 ± 0.1 %ID/g

Q: And the tissue uptake at 48 h ([3]; Muscle)?
A: 0.6 ± 0.7 %ID/g

— patent US20230372551A1, “RADIOLABELED LIGANDS FOR TARGETED PET/SPECT IMAGING AND METHODS OF THEIR USE” (priority 2020, published 2023)
